Residue numbers refer to the chain shown, from its start.
B1: MON-HT9: engineered oxygenase protein, amino acid sequence SEQ ID NO:40 (protein)
chain: MHAALTPLTNKYRFIDVQPLTGVLGAEITGVDLREPLDDSTWNEILDAFHTYQVIYFPAQQITNEQHISFSRRFGPVDPVPLLKSIEGYPEVQMIRREANESGRILGDDWHTDSTFLDAPPAAVVMRAIEVPEYGGDTGFLSMYSAWDTLSDTMKATIEGLNVVHSATRVFGSLYQAQNWRFSNTSVKVMDVDAGDRETVHPLVVSHPVTGRRALYCNQVYCQRIEGMTDAESKCLLQFLYEHATKFDFTCRVRWKKDQVLVWDNLCTMHRAVPDYAGKFRYLTRTTVAGDRPAR
B2: MON-HT10: engineered oxygenase protein, amino acid sequence SEQ ID NO:43 (protein)
chain: B1 chain with T21C, A59G, Q61A, S69A, R271L, A277D, R292K, A294S

How the values were obtained:
[1] = kinetic analysis, non-endpoint assay at 23° C.; assay type: biochemical; conditions: standard error in parenthetical; for Vmax Quizalofop / Km: 23° C., purified His-tagged protein; for Km: read-out: Km Quizalofop; for Km 2,4-D / Vmax 2,4-D: NDB = activity not robust enough for kinetic characterization
Outline: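 Purified C-terminal 6-His-tagged recombinant enzymes expressed in bacteria; quizalofop-P or 2,4-D as substrate. Vmax reported as specific activity (umol herbicide product mg enzyme-1 min-1) and Km as mM herbicide substrate, with standard error.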

F1 hybrid maize plants [2] = test: efficacy field trial with segregating F1 hybrid plants; assay type: in vivo; conditions: CTP A; for % Injury from V4 2,4-D / % Injury from V8 2,4-D: 2,4-D amine 2× at VE-V2 (plus quizalofop-P 0.5×), V4, V8; for % Injury from V4 Quizalofop / % Injury from V8 Quizalofop: quizalofop-P 2× at VE-V2, V4, V8
Method: Ten unique engineered proteins optimized for activity at higher temperatures were selected for maize transformation and analysis in plants. DNA constructs were produced for expressing these engineered proteins with codon usage optimized for monocot expression using methods known to those skilled in the art. Enhancers, promoters, leaders, introns, CTPs, and 3′UTRs were tested in various combinations with the engineered proteins in these DNA constructs. The DNA constructs were used to transform immature maize (LH244) embryos with these vectors using Agrobacterium tumifaciens and standard methods known in the art. Regenerated R0 transgenic plantlets were grown in the green house.
Transgenic R0 maize plants were screened by the application of quizalofop-P (2×) plus 2,4-D (2×) at 7 to 10 days following transplant into plugs (generally corresponding to V3-V4 growth stage). All constructs tested produced plants containing unique events that passed the RO screen. The R0 plants were selfed to generate R1 homozygous seed and the R0 was also used as the male to cross with inbred plants containing maize event MON89034 to generate segregating F1 hybrid seed for efficacy field trials.
An efficacy field trial was conducted with segregating F1 hybrid plants, with 50% hemizygous and 50% null for the transgene. Tolerance to quizalofop-P (2×) plus 2,4-D (2×) was assessed using two herbicide application regimens: (1) quizalofop-P (Assure II) at 0.16 lb ai/acre (2×) plus 0.25% v/v non-ionic surfactant (NIS) applied at VE-V2 growth stage followed by the same at V4 growth stage followed by the same at V8 growth stage and (2) 2,4-D amine at 2 lb ae/acre (2×) plus quizalofop-P at 0.04 lb ai/acre (0.5×) plus 0.25% v/v NIS applied at VE-V2 growth stage followed by 2,4-D amine at 2 lb ae/acre (2×) plus 0.25% v/v NIS applied at V4 growth stage followed by the same at V8 growth stage. The 50% of the plants that were null for transgene were removed by the first quizalofop-P application at VE-V2 growth stage. Plots were visually rated 10-14 days after application for crop injury on a scale of 0 to 100 with “0” being none and “100” being complete crop destruction. […] The percentage injury rating with 2× application of 2,4-D at V8 growth stage ranged from a high of 40% to a low of 0. Similarly, the percentage injury rating with 2× application of quizalofop-P at V8 growth stage ranged from a high of 90% to a low of 0. Variation in injury rating between plants expressing the same protein is likely due to variations in construct design or transgene insertion location.

F1 hybrid maize plants [3] = test: trait efficacy field trial, quizalofop-P pressure screening, F1 hybrid; assay type: in vivo; conditions: CTP A, crop injury percentage; for 4X Qizalofop-P CIPV4 / 4X Qizalofop-P CIPV8: 0.32 lb ai/acre at VE-V2, V4, V8; for 8X Qizalofop-P CIPV4 / 8X Qizalofop-P CIPV8: 0.64 lb ai/acre at VE-V2, V4, V8; for 16X Qizalofop-P CIPV4 / 16X Qizalofop-P CIPV8: 1.28 lb ai/acre at VE-V2, V4, V8
Method: Separate trait efficacy field trials for quizalofop-P and 2,4-D pressure screening were conducted at one location each with F1 hybrid transgenic plants produced by crossing an inbred plant containing maize event MON89034 with an R1 plant containing MON-HT1, MON-HT2, MON-HT8, MON-HT9, and MON-HT10 with and without operably linked CTP sequences. Transgenic F1 hybrid plants containing maize events NK603×MON89034 were used for comparison as a control.
In the trait efficacy field trial for quizalofop-P tolerance, one of three herbicide treatments was used: (1) quizalofop-P (Assure II) at 0.32 lb ai/acre (4×) plus 0.25% v/v non-ionic surfactant (NIS) applied at VE-V2 growth stage followed by the same at V4 growth stage followed by the same at V8 growth stage; (2) quizalofop-P at 0.64 lb ai/acre (8×) plus 0.25% v/v NIS applied at VE-V2 growth stage followed by the same at V4 growth stage followed by the same at V8 growth stage; or (3) quizalofop-P at 1.28 lb ai/acre (16×) plus 0.25% v/v NIS applied at VE-V2 growth stage followed by the same at V4 growth stage followed by the same at V8 growth stage. Plots were visually rated as above. […] The injury rating for the control plants after all quizalofop-P application was 100%. Error was calculated using LSD (0.05).

Molecule | Vmax Quizalofop [1] | Km [1] [µM] | Km 2,4-D [1] | Vmax 2,4-D [1] | % Injury from V4 2,4-D (F1 hybrid maize plants [2]) [%] | % Injury from V8 2,4-D (F1 hybrid maize plants [2]) [%] | % Injury from V4 Quizalofop (F1 hybrid maize plants [2]) [%] | % Injury from V8 Quizalofop (F1 hybrid maize plants [2]) [%] | 4X Qizalofop-P CIPV4 (F1 hybrid maize plants [3]) | 4X Qizalofop-P CIPV8 (F1 hybrid maize plants [3]) | 8X Qizalofop-P CIPV4 (F1 hybrid maize plants [3]) | 8X Qizalofop-P CIPV8 (F1 hybrid maize plants [3]) | 16X Qizalofop-P CIPV4 (F1 hybrid maize plants [3]) | 16X Qizalofop-P CIPV8 (F1 hybrid maize plants [3])
B1 | 0.53 (−0.02) umol herbicide product mg enzyme-1 min-1 | 100 | NDB | NDB | 20 | 40 | 5 | 5 | 0 | 5 | 2.5 | 15 | 7.5 | 20
B2 | 0.78 (−0.05) umol herbicide product mg enzyme-1 min-1 | 130 | NDB | NDB | 28 | 38.33 | 0 | 0 | 0 | 5 | 2.5 | 10 | 5 | 21
